Among the data in publication PMC11150392, “Structure and mechanism of the K^+/H^+ exchanger KefC” (Nature Communications, 2024) are screen value values, retold here.

First the molecules themselves.
B1: KefC WT*-GFP fusion [Escherichia coli] / itself (parent)
chain: MDSHTLIQALIYLGSAALIVPIAVRLGLGSVLGYLIAGCIIGPWGLRLVTDAESILHFAEIGVVLMLFIIGLELDPQRLWKLRAAVFGCGALQMVICGGLLGLFCMLLGLRWQVAELIGMTLALSSTAIAMQAMNERNLMVTQMGRSAFAVLLFQDIAAIPLVAMIPLLATSSASTTMGAFALSALKVAGALVLVVLLGRYVTRPALRFVARSGLREVFSAVALFLVFGFGLLLEEVGLSMAMGAFLAGVLLASSEYRHALESDIEPFKGLLLGLFFIGVGMSIDFGTLLENPLRIVILLLGFLIIKIAMLWLIARPLQVPNKQRRWFAVLLGQGSEFAFVVFGAAQMANVLEPEWAKSLTLAVALSMAATPILLVILNRLEQSSTEEAREADEIDEEQPRVIIAGFGRFGQITGRLLLSSGVKMVVLDHDPDHIETLRKFGMKVFYGDATRMDLLESAGAAKAEVLINAIDDPQTNLQLTEMVKEHFPHLQIIARARDVDHYIRLRQAGVEKPERETFEGALKTGRLALESLGLGPYEARERADVFRRFNIQMVEEMAM

The variants in the assay derive from B1. Nature of the assay: FSEC of DDM solubilized membranes after heating. Set-up: unit not given here. Conditions: with itself; 10 mins at 60 °C; 1 mM AMP; read off a plot.
In the case of chain 1 N135A, the screen value came out at 89.
On to chain 1 K81A, for which the screen value was 10.
The result for chain 1 R401A reads 74; that for chain 1 E465A, 5.5.
The result for chain 1 H259A reads 6.5; that for chain 1 R146A, 86.
The result for chain 1 R543A reads 2.5.
